Blank lines part the entries; values can stand above or below the molecule they belong to.
Key:
[1] = target: T1, mouse coagulation factor XI (mouse, UniProt Q91Y47 19-624); assay: solid phase binding assay, biotinylated 14E11 on immobilized mouse FXI
T1 construct: also called mouse FXI; mFXI

[2] = target: human activated coagulation factor XI (FXIa) (human) (UniProt P03951); assay: solid phase binding assay, biotinylated 14E11 on immobilized human FXIa
[3] = target: T1, mouse coagulation factor XI; assay: earlier solid phase binding assay (FIG. 2D), biotinylated 14E11 on immobilized FXI
[4] = target: T2, human coagulation factor XI (human, UniProt P03951 19-625); assay: as above
[5] = target: T2, human coagulation factor XI; assay: cell-based or functional assay
[6] = target: T1, mouse coagulation factor XI; assay: solid phase binding assay, biotinylated antibody on immobilized FXI, apparent Kd
[7] = target: T2, human coagulation factor XI; assay: as above
[8] = target: T2, human coagulation factor XI; assay: solid phase binding assay, biotinylated 14E11 on immobilized human FXI
[9] = target: human activated coagulation factor XI (FXIa) (human) (UniProt P03951); assay: earlier solid phase binding assay (FIG. 2D), biotinylated 14E11 on immobilized FXIa
[10] = target: T3, human activated coagulation factor XI (FXIa) (human, UniProt P03951 19-625); assay: solid phase binding assay, biotinylated antibody on immobilized FXIa, apparent Kd
T3 construct: also called human FXIa; hFXIa
Experimental: Microtiter plates were coated with FXI or FXIa (2 μg/ml, 100 μL/well) in 50 mmol/L Na₂CO₃ pH 9.6 was incubated overnight at 4° C. in Immulon 2HB microtiter plates (Thermo Scientific). Wells were blocked with 150 μL phosphate buffered saline (PBS) with 2% BSA for 1 hour at room temperature. […] After washing with PBS-0.1% Tween-20 (PBS T), 100 μL streptavidin-horse-radish-peroxidase (ThermoFisher Scientific, 1:8000 dilution in FIBS) was added, and incubated at room temperature for 90 minutes. After washing with PBS-T, 100 μL substrate solution (12 mL 30 mmol/L citric acid; 100 mmol/L Na₂HPO₄, pH 5.0; and 1 o-phenylenediamine dihydrochloride tablet, 12 μL 30% H₂O₂) was added. Reactions were stopped after 10 min with 50 μL 2.5 M H₂SO₄. […] The data was analyzed by non-linear regression analysis and the apparent Kd (equilibrium dissociation constant) was calculated as the concentration of AB023 needed to achieve half-max binding at equilibrium using GraphPad Prism (v. 5.0).

- EC50 (read off the curve) [1]: 3 pM
- EC50 (read off the curve) [2]: 3 pM
- Kd [3]: 2 to 3 pM
- Kd [4]: 2 to 3 pM
- aPTT of plasma, antibody concentration at maximum inhibition [5]: 25 to 50 nM
- Kd [6]: 70 pM
- Kd [7]: 390 pM
- EC50 (read off the curve) [8]: 3 pM
- Kd [9]: 2 to 3 pM
Molecule: 14E11, murine monoclonal anti-FXI antibody

- fold prolongation of aPTT of FXI deficient plasma + 10 µg/mL FXI after adding 100 µg/mL AB023 [5]: ~2 fold
- Kd [10]: 1300 pM
- Kd [6]: 160 pM
- Kd [7]: 3200 pM
B1: AB023, humanized anti-FXI monoclonal antibody (variant VH3/Vκ3, clone 3G3) (antibody, V domains shown)
VH: QVQLQESGPGLVKPSETLSITCTVSGFSLTGYGIYWVRQPPGKGLEWLGMIWGDGRTDYNSALKSRVTISKDNSKSQVSLKLSSVTAADTARYYCARDYYGSKDYWGQGTTVTVSS
VL: DIQMTQSPSSLSASVGDRVTITCKASQDVSTAVAWYQQKPGKAPKLLIYLTSYRNTGVPDRFSGSGSGTDFTFTISSLQPEDIAVYYCQQHYKTPYSFGGGTKVEIKR
notes: Human IgG4 with S241P (Kabat) hinge modification, kappa light chain; also called A13023; A8023

— patent US20220089777A1 (ARONORA, published 2022)
